B1: full length S. pombe Pik1, wild type [S. pombe] / purified Cdc4 protein [S. pombe] (parent complex)
chain 1: MPSSNSGNELLLRFFESAHFTSQLCVAYLSRYPNNIGIHHFLCEKLATFPYEEIEFFIPQLIHLVLNKDSESVALEEFIISQCEQNTQCALITFWYLQAHMVDLGLQPHSSCFKICKRLYNRIQILVFMSSSSLIQSQQKISENVTPALILSGIMLGGVCVPELLKKAGPIAIAQGRKAPRQDPDESDVDVLRRLSTEPRYSLDVLRSSLNNSIVEQHSEVSLRLKAPELTRTHSYQSSATLSIDEQRRVLRSNYFQQEIQFLFALQDISIRLIIVPRQARLSSLRAELALLNNNLPADVNIPLLRSYHKEVSHKIVRIDPKEATILNSAERVPYLIMVEVLSGELSFEPQSKKNKAKVQKIVSHKNQRKRWFDLTDVDPYTNLQDSTDNDISESESEGGDLSMSPLIKGLVPDTLSLSKSFSSFGNVSLQVPSSHRDTDVVLLSGRHSDSDGNGALKRSKIYASEITARMRAAATMLSQLDAEGSRRPKAETERIKNSIILDMQRLEEERLNEPSIYPVSVDISCAEDLRFGKETQKAERKGDRDDPSAATFQEDWYAKKERIRKSSPYGHYPNWDLVSVIVKTGADLRQETFACQLIYAFQRVWLECKEKVWVRRMKILVTGDNSGLIETITNAISVHSIKKNLTKQLREAELAQGKIAGKNVVTLKDYFIKQFGDPNSSRYRQAQTNFLQSLVAYSIISYLLQLKDRHNGNVLIDSEGHIIHIDFGFLLTNTPGNVGFESAPFKLTADYLEILDDRFDEYRSLMKAAFKSVRKNADQIILLVEVMQNNSTMPCFRAGENTSAQLLQRFQLQLGDKECDDFVDLLIQKANCSVWTRLYDLFQNITNGIY
chain 2: MSTDDSPYKQAFSLFDRHGTGRIPKTSIGDLLRACGQNPTLAEITEIESTLPAEVDMEQFLQVLNRPNGFDMPGDPEEFVKGFQVFDKDATGMIGVGELRYVLTSLGEKLSNEEMDELLKGVPVKDGMVNYHDFVQMILAN

The assay covers variants of B1. The assay can be described thus: sandwich ELISA; about 56 µg lysate protein (highest point of 2-fold serial dilution); cells grown in the absence of thiamine; Cdc4-coated wells; parent: 0.27; read off a plot. A general note: In an ELISA, binding on a coated surface is turned into a signal by an enzyme label.
chain 1 R838A: the response was roughly 0.027 Absorbance.
